PMC5720721, “A thermal after-effect of UV irradiation of muscle glycogen phosphorylase b” (PLoS ONE, 2017)

Target: the molecule itself
Test: AUC; sedimentation velocity; native Phb and UV-Phb 0.75 mg/ml; 0.03 M Hepes, pH 6.8, 0.1 M NaCl; 20°C; rotor speed 52000 rpm; growing time (dose) of UV irradiation

B1: glycogen phosphorylase b from rabbit skeletal muscle (enzyme, UniProt P00489 1-843, looked up)
chain: MSRPLSDQEKRKQISVRGLAGVENVTELKKNFNRHLHFTLVKDRNVATPRDYYFALAHTVRDHLVGRWIRTQQHYYEKDPKRIYYLSLEFYMGRTLQNTMVNLALENACDEATYQLGLDMEELEEIEEDAGLGNGGLGRLAACFLDSMATLGLAAYGYGIRYEFGIFNQKICGGWQMEEADDWLRYGNPWEKARPEFTLPVHFYGRVEHTSQGAKWVDTQVVLAMPYDTPVPGYRNNVVNTMRLWSAKAPNDFNLKDFNVGGYIQAVLDRNLAENISRVLYPNDNFFEGKELRLKQEYFVVAATLQDIIRRFKSSKFGCRDPVRTNFDAFPDKVAIQLNDTHPSLAIPELMRVLVDLERLDWDKAWEVTVKTCAYTNHTVLPEALERWPVHLLETLLPRHLQIIYEINQRFLNRVAAAFPGDVDRLRRMSLVEEGAVKRINMAHLCIAGSHAVNGVARIHSEILKKTIFKDFYELEPHKFQNKTNGITPRRWLVLCNPGLAEIIAERIGEEYISDLDQLRKLLSYVDDEAFIRDVAKVKQENKLKFAAYLEREYKVHINPNSLFDVQVKRIHEYKRQLLNCLHVITLYNRIKKEPNKFVVPRTVMIGGKAAPGYHMAKMIIKLITAIGDVVNHDPVVGDRLRVIFLENYRVSLAEKVIPAADLSEQISTAGTEASGTGNMKFMLNGALTIGTMDGANVEMAEEAGEENFFIFGMRVEDVDRLDQRGYNAQEYYDRIPELRQIIEQLSSGFFSPKQPDLFKDIVNMLMHHDRFKVFADYEEYVKCQERVSALYKNPREWTRMVIRNIATSGKFSSDRTIAQYAREIWGVEPSRQRLPAPDEKIP
notes: glycogen phosphorylase b, muscle form, rabbit skeletal muscle; Mr of the dimer printed as 194800 Da; also called Phb; intact Phb; source: purified from rabbit skeletal muscle
- stoichiometry N: 2
